Measured values reported in US20180073027, “CD117 Ligand-Drug Conjugates For Targeted Cancer Therapy” (THE METHODIST HOSPITAL SYSTEM, published 2018).

Molecular target: CD117 (KIT, c-Kit) (UniProt P10721 P10721:26-976)
Test: flow; HEL cells, room temperature 30 min; no binding to CD117-negative CA46, U937, MDA-MB-468, LNCaP cells
Conditions: tags: endogenous on HEL AML cell line (ATCC) or primary AML marrow cells; label: 5'-Cy3; G4

CD117 (KIT, c-Kit), sequence (P10721 26-976, one chain of several): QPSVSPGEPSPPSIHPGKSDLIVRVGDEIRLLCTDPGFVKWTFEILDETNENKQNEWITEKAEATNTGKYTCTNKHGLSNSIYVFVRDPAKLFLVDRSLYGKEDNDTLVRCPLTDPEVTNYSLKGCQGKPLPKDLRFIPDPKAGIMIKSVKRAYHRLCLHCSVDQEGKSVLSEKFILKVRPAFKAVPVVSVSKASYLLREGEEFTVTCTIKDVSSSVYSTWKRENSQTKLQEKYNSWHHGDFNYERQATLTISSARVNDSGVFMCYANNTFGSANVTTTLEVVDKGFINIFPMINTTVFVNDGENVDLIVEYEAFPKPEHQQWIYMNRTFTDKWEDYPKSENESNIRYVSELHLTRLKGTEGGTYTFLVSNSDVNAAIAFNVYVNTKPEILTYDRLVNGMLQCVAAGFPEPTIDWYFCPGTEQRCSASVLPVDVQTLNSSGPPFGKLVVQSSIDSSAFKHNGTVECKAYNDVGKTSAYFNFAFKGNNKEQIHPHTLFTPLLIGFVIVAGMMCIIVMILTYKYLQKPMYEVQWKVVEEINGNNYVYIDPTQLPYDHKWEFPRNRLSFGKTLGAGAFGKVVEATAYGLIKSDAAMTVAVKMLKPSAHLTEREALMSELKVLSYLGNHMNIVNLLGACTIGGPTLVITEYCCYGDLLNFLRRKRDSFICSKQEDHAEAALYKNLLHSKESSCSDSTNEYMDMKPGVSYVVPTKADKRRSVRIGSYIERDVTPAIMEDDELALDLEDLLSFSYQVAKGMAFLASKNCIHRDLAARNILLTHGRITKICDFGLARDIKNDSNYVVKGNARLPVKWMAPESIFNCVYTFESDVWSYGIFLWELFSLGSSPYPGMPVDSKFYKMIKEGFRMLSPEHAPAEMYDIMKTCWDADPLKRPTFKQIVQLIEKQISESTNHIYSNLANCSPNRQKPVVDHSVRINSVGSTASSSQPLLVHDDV

B1: CD117 aptamer #1F (full length) (ssDNA)
DNA: GAGGCATACCAGCTTATTCAAGGGGCCGGGGCAAGGGGGGGGTACCGTGGTAGGACATAGTAAGTGCAATCTGCGAA
Kd: 6.3 nM
